In PMC2649033, “Comparison between the HCV IRES domain IV RNA structure and the Iron Responsive Element” one finds binding result and Kd data, which are given here for six molecules.

Common to all, as to details: protein: recombinant; label: 32P-CTP; hairpin
Data set [1] has as its target T1, hIRP1 (GST fusion) (human, UniProt P21399 1-889).
T1 sequence: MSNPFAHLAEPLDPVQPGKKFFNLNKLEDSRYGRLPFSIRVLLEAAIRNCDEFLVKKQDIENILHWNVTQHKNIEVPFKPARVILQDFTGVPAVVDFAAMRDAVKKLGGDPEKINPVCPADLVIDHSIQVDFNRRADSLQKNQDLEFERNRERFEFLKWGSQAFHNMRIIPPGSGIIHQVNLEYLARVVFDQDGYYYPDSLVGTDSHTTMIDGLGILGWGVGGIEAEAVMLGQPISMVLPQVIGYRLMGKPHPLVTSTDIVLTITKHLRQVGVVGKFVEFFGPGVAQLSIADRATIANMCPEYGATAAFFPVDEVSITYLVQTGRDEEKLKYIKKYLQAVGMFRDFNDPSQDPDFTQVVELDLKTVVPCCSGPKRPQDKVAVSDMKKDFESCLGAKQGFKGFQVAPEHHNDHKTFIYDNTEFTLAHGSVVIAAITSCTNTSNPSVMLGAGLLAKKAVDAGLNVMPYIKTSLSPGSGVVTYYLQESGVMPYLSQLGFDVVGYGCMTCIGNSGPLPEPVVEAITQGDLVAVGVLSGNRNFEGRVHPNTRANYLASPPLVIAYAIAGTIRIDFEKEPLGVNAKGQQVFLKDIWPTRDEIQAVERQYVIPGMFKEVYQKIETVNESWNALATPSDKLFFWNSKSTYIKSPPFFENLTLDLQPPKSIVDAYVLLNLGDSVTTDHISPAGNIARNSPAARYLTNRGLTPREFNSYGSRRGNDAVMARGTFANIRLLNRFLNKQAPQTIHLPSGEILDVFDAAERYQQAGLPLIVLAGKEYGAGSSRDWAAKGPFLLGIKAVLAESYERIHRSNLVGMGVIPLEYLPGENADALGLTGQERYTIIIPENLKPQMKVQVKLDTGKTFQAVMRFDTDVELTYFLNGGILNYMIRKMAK
Briefly: EMSA; 240 ng hIRP1; also bound at 100 ng; approx. equal to ET1+2+3; 10 mM HEPES pH 7.6, 2 mM MgCl2, 40 mM KCl, 5% glycerol, 1 mM DTT, 20 uL, room temperature 30 min, then heparin 0.63 ug/uL 10 min; native PAGE (7%/14%) in 0.5x TBE.

The target of data set [2] is T1, hIRP1 (GST fusion). Briefly: EMSA; 2 mM Mg2+; 5.2 nM RNA; data not shown; 10 mM HEPES pH 7.6, 2 mM MgCl2, 40 mM KCl, 5% glycerol, 1 mM DTT, 20 uL, room temperature 30 min, […] (7%/14%) […].
Data set [3] concerns the target T1, hIRP1 (GST fusion). Briefly: EMSA; 2 mM Mg2+; 5.2 nM RNA; mean of 3 experiments; 10 mM HEPES pH 7.6, 2 mM MgCl2, 40 mM KCl, 5% glycerol, 1 mM DTT, 20 uL, room temperature 30 min, […] (7%/14%) […].
Data set [4] has as its target T1, hIRP1 (GST fusion). Nature of the data set: EMSA; 240 ng hIRP1; 10 mM HEPES pH 7.6, 2 mM MgCl2, 40 mM KCl, 5% glycerol, 1 mM DTT, 20 uL, room temperature 30 min, […] (7%/14%) […].
In data set [5] the target is T1, hIRP1 (GST fusion). Briefly: EMSA; 240 ng hIRP1; 10 mM HEPES pH 7.6, 2 mM MgCl2, 40 mM KCl, 5% glycerol, 1 mM DTT, 20 uL, room temperature 30 min, then heparin 0.63 ug/uL 10 min; native PAGE (7%/14%) in 0.5x TBE.

With GUUCGUCCUCAGUGCAGGGCAAC (structured_RNA) [eALAS IRE], the binding result with hIRP1 (GST fusion) [1] is reported as “binds”.
As to GACCGUGCCCGUGAGCACGUC (structured_RNA) [ET1+2+3], the Kd with hIRP1 (GST fusion) [2] was ~0.05 nM.
Turning to GACCGUGCCCAUGAGCACGUC (structured_RNA) [ET2+3], the Kd with hIRP1 (GST fusion) [3] is 54 ± 13 nM.
GACCGUGCACCAUGAGCACGAAUC (structured_RNA) [HCV IRES dIV wild type]: the binding result with hIRP1 (GST fusion) [4] was “no binding”.
The same measure, in the same setting: for GACCGUGCACCGUGAGCACGAAUC (structured_RNA) [ET1] the value was “no binding”.
With GUUCGUCCUGCUCCGAGGGCAAC (structured_RNA) [IRE (-) negative control], the binding result with hIRP1 (GST fusion) [5] is “no binding”.
